The target in one assay is T1, PIGF (UniProt P49763-2 21-149, limits assumed).
T1 construct: also called placenta growth factor
T1 sequence (looked up): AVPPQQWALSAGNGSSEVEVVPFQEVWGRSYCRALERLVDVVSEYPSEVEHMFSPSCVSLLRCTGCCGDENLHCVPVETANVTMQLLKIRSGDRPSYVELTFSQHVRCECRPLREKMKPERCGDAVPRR
The experiment in a line: solid phase binding ELISA on coated PIGF (Example 12.8). The protocol: (§1) Binding to VEGFB, VEGFC, VEGFD and PIGF is assessed via a solid phase binding ELISA. […] Wells are blocked with a casein solution (1% in PBS). […] As positive controls serial dilutions of the appropriate receptors are taken along and detected with horseradish peroxidase (HRP)-conjugated goat anti-human IgG, Fc specific antibody (Jackson Immuno Research Laboratories Inc., West Grove, Pa., USA) and a subsequent enzymatic reaction in the presence of the substrate TMB (3,3′,5,5′-tetramentylbenzidine) (Pierce, Rockford, Ill., USA).
A general note: ELISA stands for enzyme-linked immunosorbent assay.

The target in the next assay is T2, VEGFD (UniProt O43915 93-201, limits assumed).
T2 sequence (looked up): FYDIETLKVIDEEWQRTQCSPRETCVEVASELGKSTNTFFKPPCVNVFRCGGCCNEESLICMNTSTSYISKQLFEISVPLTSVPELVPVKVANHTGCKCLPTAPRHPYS
The experiment in a line: solid phase binding ELISA on coated VEGF D (Example 12.8). The procedure:
as §1

The target of a further assay is T3, VEGFC (UniProt P49767 103-227, limits assumed).
T3 sequence (looked up): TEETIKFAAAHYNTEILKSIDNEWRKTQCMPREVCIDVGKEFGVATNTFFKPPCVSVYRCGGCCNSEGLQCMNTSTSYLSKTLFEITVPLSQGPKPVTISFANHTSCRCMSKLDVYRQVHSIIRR
The experiment in a line: binding ELISA on coated VEGFC (Example 12.8), OD 450 nm. The protocol: as §1

Another assay has as its target T4, VEGFB (UniProt P49765-2 22-188, limits assumed).
T4 sequence (looked up): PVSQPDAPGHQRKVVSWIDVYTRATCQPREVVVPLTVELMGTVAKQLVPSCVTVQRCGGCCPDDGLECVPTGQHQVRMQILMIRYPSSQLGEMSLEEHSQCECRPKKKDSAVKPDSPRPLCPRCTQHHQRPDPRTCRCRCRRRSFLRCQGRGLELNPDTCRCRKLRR
The experiment in a line: binding ELISA on coated VEGFB (Example 12.8), OD 450 nm. The protocol:
as §1

B1: VEGFBII024 (VHH)
chain: EVQLVESGGGLVQTGDSLRLSCEVSGRTFSSYSMGWFRQAQGKEREFVVAISKGGYKYDSVSLEGRFTISKDNAKNTVYLQINSLKPEDTAVYYCASSRAYGSSRLRLADTYEYWGQGTQVTVSSGGGGSGGGGSGGGGSGGGGSGGGGSGGGGSGGGGSGGGGSEVQLVESGGGLVQAGGSLRLSCTASGSAFKSYRMGWFRRTPGKEDEFVASISWTYGSTFYADSVKGRFTMSRDKAKNAGYLQMNSLKPEDTALYYCAAGAQSDRYNIRSYDYWGQGTQVTVSS
notes: bivalent (heterodimeric) VHH; also called VEGFBII23B04-40GS-86H09
Turning to B1, the binding result is “no binding (tested: about 5e-7 M)” in the assay with PIGF, “no binding (tested: about 5e-7 M)” with VEGFD, “no binding (tested: 5e-7 M)” with VEGFC and “no binding (tested: 5e-7 M)” with VEGFB.

B2: VEGFBII022 (VHH)
chain: EVQLVESGGGLVQTGDSLRLSCEVSGRTFSSYSMGWFRQAQGKEREFVVAISKGGYKYDSVSLEGRFTISKDNAKNTVYLQINSLKPEDTAVYYCASSRAYGSSRLRLADTYEYWGQGTQVTVSSGGGGSGGGSEVQLVESGGGLVQPGGSLRLSCVASGIRFMSMAWYRQAPGKHRELVARISSGGTTAYVDSVKGRFTISRDNSKNTVYLQMNSLKAEDTAVYYCNTFSSRPNPWGAGTQVTVSS
notes: bivalent (heterodimeric) VHH; also called VEGFBII23B04-9GS-5B05
In the case of B2, the binding result with PIGF is on record as “no binding (tested: about 5e-7 M)”; in the assay with VEGFD it was “no binding (tested: about 5e-7 M)”; in the assay with VEGFC it was “no binding (tested: 5e-7 M)”; in the assay with VEGFB, “no binding (tested: 5e-7 M)”.

B3: VEGFBII025 (VHH)
chain: EVQLVESGGGLVQAGGSLRLSCAASGRTFSNYAMGWFRQAPGKERVLVADISSSGINTYVADAVKGRFTISRDNAKNTVYLQMNSLKPEDTAVYYCAASAWWYSQMARDNYRYWGQGTQVTVSSGGGGSGGGGSGGGGSGGGGSGGGGSGGGGSGGGGSGGGGSEVQLVESGGGLVQTGDSLRLSCEVSGRTFSSYSMGWFRQAQGKEREFVVAISKGGYKYDSVSLEGRFTISKDNAKNTVYLQINSLKPEDTAVYYCASSRAYGSSRLRLADTYEYWGQGTQVTVSS
notes: bivalent (heterodimeric) VHH; also called VEGFBII10E07-40GS-23B04
B3: the binding result with PIGF is “no binding (tested: about 5e-7 M)”; with VEGFD, “no binding (tested: about 5e-7 M)”; with VEGFC, “no binding (tested: 5e-7 M)”; in the assay with VEGFB it was “no binding (tested: 5e-7 M)”.

B4: VEGFBII021 (VHH)
chain: EVQLVESGGGLVQTGDSLRLSCEVSGRTFSSYSMGWFRQAQGKEREFVVAISKGGYKYDSVSLEGRFTISKDNAKNTVYLQINSLKPEDTAVYYCASSRAYGSSRLRLADTYEYWGQGTQVTVSSGGGGSGGGGSGGGGSGGGGSGGGGSGGGGSGGGGSGGGGSEVQLVESGGGLVQPGGSLRLSCVASGIRFMSMAWYRQAPGKHRELVARISSGGTTAYVDSVKGRFTISRDNSKNTVYLQMNSLKAEDTAVYYCNTFSSRPNPWGAGTQVTVSS
notes: bivalent (heterodimeric) VHH; also called VEGFBII23B04-40GS-5B05
Turning to B4, the binding result with PIGF was “no binding (tested: about 5e-7 M)”; in the assay with VEGFD, “no binding (tested: about 5e-7 M)”; with VEGFC, “no binding (tested: 5e-7 M)”; with VEGFB, “no binding (tested: 5e-7 M)”.

B5: VEGFBII023 (VHH)
chain: EVQLVESGGGLVQTGDSLRLSCEVSGRTFSSYSMGWFRQAQGKEREFVVAISKGGYKYDSVSLEGRFTISKDNAKNTVYLQINSLKPEDTAVYYCASSRAYGSSRLRLADTYEYWGQGTQVTVSSGGGGSGGGGSGGGGSGGGGSGGGGSGGGGSGGGGSGGGGSEVQLVESGGGLVQAGGSLRLSCAASGRTFSNYAMGWFRQAPGKERVLVADISSSGINTYVADAVKGRFTISRDNAKNTVYLQMNSLKPEDTAVYYCAASAWWYSQMARDNYRYWGQGTQVTVSS
notes: bivalent (heterodimeric) VHH; also called VEGFBII23B04-40GS-10E07
For B5, the binding result is recorded as “no binding (tested: about 5e-7 M)” in the assay with PIGF, “no binding (tested: about 5e-7 M)” with VEGFD, “no binding (tested: 5e-7 M)” with VEGFC and “no binding (tested: 5e-7 M)” with VEGFB.

(Values after patent US20140120095A1 (Boehringer Ingelheim, published 2014).)
